Reference: patent US20240124563A1

Assays:
[1] = molecular target: human MSLN full-length protein on transfected cells (CHO-K1-hMSLN clones 2C8, 2D11, 2C5; HEK293T-hMSLN clones B8, 2A4, 2A7) (human) (UniProt Q13421); test: FACS, CHO-K1-hMSLN-2C8 cells, antibody 0.8 nM
[2] = molecular target: chimeric human MSLN-R3 / chicken MSLN-R1-2 protein on HEK293T cells (clone A5) (chicken; human); test: FACS, HEK293T-hR3/chickR1-2-A5 cells, antibody 0.2 nM
[3] = molecular target: monkey MSLN full-length protein on HEK293T cells (monkey); test: FACS, HEK293T-monkey-MSLN cells, antibody 100 nM
[4] = molecular target: human MSLN full-length protein, recombinant, on CHO-K1 or HEK293T cells (human) (UniProt Q13421); test: competitive FACS on CHO-K1-human MSLN-2C8 cells vs Biotin-Tab131; competitor at 8 nM
[5] = molecular target: human MSLN protein endogenously expressed on tumor cells (Hela, OVCAR3) (human) (UniProt Q13421); test: FACS, OVCAR3 cells, antibody 0.2 nM
[6] = molecular target: monkey MSLN full-length protein on HEK293T cells (monkey); test: FACS, HEK293T-monkey MSLN cells
[7] = molecular target: human MSLN full-length protein, recombinant, on CHO-K1 or HEK293T cells (human) (UniProt Q13421); test: competitive FACS on CHO-K1-human MSLN-2C8 cells vs Biotin-Tab142; competitor at 0.00256 nM
[8] = molecular target: human MSLN protein endogenously expressed on tumor cells (Hela, OVCAR3) (human) (UniProt Q13421); test: FACS, OVCAR3 cells, antibody 0.032 nM

Sequence of human MSLN full-length protein, recombinant, on CHO-K1 or HEK293T cells (human) (Q13421 other isoform, or with tags, fused parts or gaps limits assumed): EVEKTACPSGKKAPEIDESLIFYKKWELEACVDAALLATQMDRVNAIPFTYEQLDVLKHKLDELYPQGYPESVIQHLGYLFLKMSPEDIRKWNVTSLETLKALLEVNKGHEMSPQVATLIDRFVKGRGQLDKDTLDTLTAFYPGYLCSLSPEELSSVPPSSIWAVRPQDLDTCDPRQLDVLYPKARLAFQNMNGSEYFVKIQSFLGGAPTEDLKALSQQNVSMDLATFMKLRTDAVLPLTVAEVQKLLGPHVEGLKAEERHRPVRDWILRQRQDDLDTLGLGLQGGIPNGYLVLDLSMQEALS
Sequence of human MSLN protein endogenously expressed on tumor cells (Hela, OVCAR3) (human) (Q13421 other isoform, or with tags, fused parts or gaps): as the sequence (Q13421 other isoform, or with tags, fused parts or gaps limits assumed) above, with P14R counted along it
Sequence of chimeric human MSLN-R3 / chicken MSLN-R1-2 protein on HEK293T cells (clone A5) (chicken; human) (Q13421 495-614, change not shown): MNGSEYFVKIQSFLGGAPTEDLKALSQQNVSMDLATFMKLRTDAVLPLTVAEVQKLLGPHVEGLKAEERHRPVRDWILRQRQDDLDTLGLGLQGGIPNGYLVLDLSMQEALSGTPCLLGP
Sequence of human MSLN full-length protein on transfected cells (CHO-K1-hMSLN clones 2C8, 2D11, 2C5; HEK293T-hMSLN clones B8, 2A4, 2A7) (human) (Q13421 other isoform, or with tags, fused parts or gaps limits assumed): as the sequence (Q13421 other isoform, or with tags, fused parts or gaps limits assumed) above

FACS signal (MFI) [1]: 80
MFI [2]: 73
FACS signal (MFI) [3]: 127
MFI of Biotin-Tab131 [4]: 13000
MFI [5]: 106
Max MFI [6]: 137
MFI of Biotin-Tab142 [7]: 24300
FACS signal (MFI) [8]: 75
Substance: hIgG1 (antibody)
